Residues, ends and D or L forms follow the SMILES beside them. *: point of attachment. DOTA = O=C(O)CN1CCN(CC(=O)O)CCN(CC(=O)*)CCN(CC(=O)O)CC1; X1 = CN(C)c1ccc(/N=N/c2ccc(C(=O)*)cc2)cc1
Test: in vivo
Experimental: To study ischemia-induced myocardial injuries, male Wistar rats weighing 200~250 gr were sorted into three groups of four (n=4): (1) normal group, (2) Ischemic group, and (3) sham group. The rats were anesthetized by intraperitoneal (IP) administration of 3 % pentobarbital sodium (60 mg/kg). Positive pressure mechanical ventilation was made by a Shinano respirator (SN-480–4) and an open-heart operation was done at the level of the left 4th–5th ribs. The rats received intramuscular injections of penicillin sodium (0.8 mg/g) to prevent infection. Myocardial ischemia was induced by a slipknot (4–0 silk suture) around the LAD about 2–3 mm near its origin. After 30-min ischemia, the slipknot was loosened to restore normal circulation for reperfusion ([28]). […] In the same group, heart surgery was performed without LAD artery occlusion.
The biodistribution of radiopeptide among tissues was measured by sacrifice of rats for each elected interval (30, 60, 180, and 360 min) post-injection. Various tissues, including heart, bone, kidneys, muscle, salivary glands, spleen, and intestines, were removed immediately and rinsed with saline solution to clean their residual blood. Moreover, blood samples for monitoring radioactivity were taken from the heart by a heparin-impregnated syringe after sacrificing. The percentage of injected activity per gram (%ID/g) for different organs was measured by dividing the activity of each organ per decayed total injected activity and mass of each organ. Moreover, in ischemic rats, 100 μg unlabeled peptide was co-injected with radiolabeled peptide to analyze the in vivo blocking test.

[1] = male, Wistar, rat, blood, iv, 20 MBq, total radioactivity
[2] = male, Wistar, rat, bone, iv, 20 MBq, total radioactivity
[3] = male, Wistar, rat, heart, iv, 20 MBq, total radioactivity
[4] = male, Wistar, rat, intestines, iv, 20 MBq, total radioactivity
[5] = male, Wistar, rat, ischemic heart / lung, iv, 20 MBq, total radioactivity
[6] = male, Wistar, rat, ischemic heart, iv, 20 MBq, total radioactivity
[7] = male, Wistar, rat, kidneys, iv, 20 MBq, total radioactivity
[8] = male, Wistar, rat, liver, iv, 20 MBq, total radioactivity
[9] = male, Wistar, rat, lung, iv, 20 MBq, total radioactivity
[10] = male, Wistar, rat, muscle, iv, 20 MBq, total radioactivity
[11] = male, Wistar, rat, salivary gland and thyroid, iv, 20 MBq, total radioactivity
[12] = male, Wistar, rat, spleen, iv, 20 MBq, total radioactivity
[13] = male, Wistar, rat, stomach, iv, 20 MBq, total radioactivity

SMILES: CC(C)C[C@H](NC(=O)[C@H](Cc1ccccc1)NC(=O)[C@H](CCCCNC(=O)c1ccc(/N=N/c2ccc(N(C)C)cc2)cc1)NC(=O)[C@H](CCC(=O)O)NC(=O)[C@H](CC(C)C)NC(=O)[C@H](CCC(N)=O)NC(=O)[C@H](CCC(=O)O)NC(=O)[C@H](CCC(=O)O)NC(=O)CN1CCN(CC(=O)O)CCN(CC(=O)O)CCN(CC(=O)O)CC1)C(=O)N[C@@H](CC(N)=O)C(=O)N[C@@H](CO)C(=O)N[C@@H](CO)C(=O)O [99mTc-DOTA-(Lys-Dabcyl6,Phe7)-ARA-290, metal not drawn] ({DOTA}-EEQLEK(X1)FLNSS-OH; C-terminus assumed)
- Isch heart/Th ratio (60 min p.i., block with 100 μg unlabeled peptide, ischemic rats): 1.04
- Isch heart/Lung ratio (180 min p.i., ischemic rats): 2.61
- Isch heart/Th ratio (180 min p.i., ischemic rats): 4.68
- Isch heart/Th ratio (360 min p.i., ischemic rats): 6.01
- tissue uptake at 0.5 h [1]: 1.52 ± 0.29 %ID/g
- tissue uptake at 1 h [1]: 0.96 ± 0.16 %ID/g
- tissue uptake at 3 h [1]: 0.44 ± 0.28 %ID/g
- tissue uptake at 6 h [1]: 0.12 ± 0.87 %ID/g
- tissue uptake at 0.5 h [2]: 0.75 ± 0.41 %ID/g
- tissue uptake at 1 h [2]: 0.53 ± 0.21 %ID/g
- tissue uptake at 3 h [2]: 0.32 ± 0.21 %ID/g
- tissue uptake at 6 h [2]: 0.16 ± 0.29 %ID/g
- tissue uptake at 0.5 h [3]: 0.62 ± 0.15 %ID/g
- tissue uptake at 1 h [3]: 0.31 ± 0.18 %ID/g
- tissue uptake at 3 h [3]: 0.21 ± 0.32 %ID/g
- tissue uptake at 6 h [3]: 0.14 ± 0.23 %ID/g
- tissue uptake at 0.5 h [4]: 1.73 ± 0.1 %ID/g
- tissue uptake at 1 h [4]: 3.22 ± 0.78 %ID/g
- tissue uptake at 3 h [4]: 2.89 ± 0.08 %ID/g
- tissue uptake at 6 h [4]: 2.35 ± 0.25 %ID/g
- tissue to tissue ratio at 0.5 h [5]: 3.65
- tissue to tissue ratio at 1 h [5]: 4.31
- tissue to tissue ratio at 6 h [5]: 3.37
- tissue uptake at 0.5 h [6]: 3.44 ± 0.32 %ID/g
- tissue uptake at 1 h [6]: 3.28 ± 0.52 %ID/g
- tissue uptake at 3 h [6]: 1.36 ± 0.44 %ID/g
- tissue uptake at 6 h [6]: 1.08 ± 0.94 %ID/g
- tissue uptake at 0.5 h [7]: 10.6 ± 0.48 %ID/g
- tissue uptake at 1 h [7]: 14.29 ± 0.01 %ID/g
- tissue uptake at 3 h [7]: 8.58 ± 0.1 %ID/g
- tissue uptake at 6 h [7]: 4.06 ± 0.43 %ID/g
- tissue uptake at 0.5 h [8]: 3.55 ± 0.21 %ID/g
- tissue uptake at 1 h [8]: 4.28 ± 0.15 %ID/g
- tissue uptake at 3 h [8]: 3.49 ± 0.09 %ID/g
- tissue uptake at 6 h [8]: 2.08 ± 0.28 %ID/g
- tissue uptake at 0.5 h [9]: 0.94 ± 0.58 %ID/g
- tissue uptake at 1 h [9]: 0.76 ± 0.77 %ID/g
- tissue uptake at 3 h [9]: 0.52 ± 0.19 %ID/g
- tissue uptake at 6 h [9]: 0.32 ± 0.22 %ID/g
- tissue uptake at 0.5 h [10]: 0.53 ± 0.42 %ID/g
- tissue uptake at 1 h [10]: 0.42 ± 0.84 %ID/g
- tissue uptake at 3 h [10]: 0.25 ± 0.87 %ID/g
- tissue uptake at 6 h [10]: 0.17 ± 0.31 %ID/g
- tissue uptake at 0.5 h [11]: 0.79 ± 0.41 %ID/g
- tissue uptake at 1 h [11]: 0.62 ± 0.15 %ID/g
- tissue uptake at 3 h [11]: 0.29 ± 0.29 %ID/g
- tissue uptake at 6 h [11]: 0.18 ± 0.81 %ID/g
- tissue uptake at 0.5 h [12]: 2.56 ± 0.21 %ID/g
- tissue uptake at 1 h [12]: 2.31 ± 0.12 %ID/g
- tissue uptake at 3 h [12]: 1.16 ± 0.22 %ID/g
- tissue uptake at 6 h [12]: 0.44 ± 0.29 %ID/g
- tissue uptake at 0.5 h [13]: 0.88 ± 0.44 %ID/g
- tissue uptake at 1 h [13]: 0.71 ± 0.31 %ID/g
- tissue uptake at 3 h [13]: 0.54 ± 0.28 %ID/g
- tissue uptake at 6 h [13]: 0.32 ± 0.19 %ID/g

Reference: paper PMC8917853, “Synthesis and evaluation of ^99mTc-DOTA-ARA-290 as potential SPECT tracer for targeting cardiac ischemic region” (Iranian Journal of Basic Medical Sciences, 2021)
